Experimental data reported in patent US20200024322A1 (Eli Lilly, published 2020).
Numbered stars: 1 amine (or outer) side, 2 acyl side, 3 side chain; on linkers, the order of the positions; unused ones are H or OH. Square brackets hold non-standard residues; d marks the D form. Side chains are listed from the residue outwards. Ends that are not written are not given here. * marks the point of attachment. C18 diacid = O=C(O)CCCCCCCCCCCCCCCCC(=O)*; γGlu = O=C(O)[C@H](CCC(=O)[*:2])N[*:1]; AEEA = NCCOCCOCC(=O)O; Aib = CC(C)(N)C(=O)O

T1: human GIP receptor (human, UniProt P48546 22-466)
T1 construct: whole, on cells; also called hGIPR; hGIP-R
T1 sequence (looked up): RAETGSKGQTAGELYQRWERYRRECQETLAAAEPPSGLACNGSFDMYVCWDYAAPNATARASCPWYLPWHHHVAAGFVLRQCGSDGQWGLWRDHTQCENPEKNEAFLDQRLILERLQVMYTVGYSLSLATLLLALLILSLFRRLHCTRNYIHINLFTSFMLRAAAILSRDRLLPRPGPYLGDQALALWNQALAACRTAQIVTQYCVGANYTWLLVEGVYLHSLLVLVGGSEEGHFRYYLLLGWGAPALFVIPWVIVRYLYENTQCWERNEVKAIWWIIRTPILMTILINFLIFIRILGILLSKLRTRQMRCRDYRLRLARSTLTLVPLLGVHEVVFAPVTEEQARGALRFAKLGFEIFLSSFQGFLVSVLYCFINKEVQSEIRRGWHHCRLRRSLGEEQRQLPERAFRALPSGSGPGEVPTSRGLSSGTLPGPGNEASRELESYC

B1: Example 301 (peptide)
peptide: YXEGTXTSDYSILLDKKAQXAFIEYLIEGGPSSG
modifications: Aib2; αMeF6; K17((2-[2-(2-Amino-ethoxy)-ethoxy]-acetyl)2-(γ-Glu)-CO-(CH2)16-CO2H); Aib20; C-terminal NH2
notes: also called GG-650
B2: Example 307 (peptide)
peptide: YXEGTXTSDYSILLDEKAQXAFIEYLIEGGPSSG
modifications: Aib2; αMeF6; K17((2-[2-(2-Amino-ethoxy)-ethoxy]-acetyl)2-(γ-Glu)-CO-(CH2)16-CO2H); Aib20; C-terminal NH2
B3: Example 308 (peptide)
peptide: YXEGTXTSDYSILLDKKAQXEFIEYLIEGGPSSG
modifications: Aib2; αMeF6; K17((2-[2-(2-Amino-ethoxy)-ethoxy]-acetyl)2-(γ-Glu)-CO-(CH2)16-CO2H); Aib20; C-terminal NH2
B4: Example 309 (peptide)
peptide: YXEGTXTSDYSILLDKKAQXAFIEYLIAGGPSSG
modifications: Aib2; αMeF6; K17((2-[2-(2-Amino-ethoxy)-ethoxy]-acetyl)2-(γ-Glu)-CO-(CH2)16-CO2H); Aib20; C-terminal NH2
B5: Example 310 (peptide)
peptide: YXEGTXTSDYSILLDKKAQXEFIEYLIAGGPSSG
modifications: Aib2; αMeF6; K17((2-[2-(2-Amino-ethoxy)-ethoxy]-acetyl)2-(γ-Glu)-CO-(CH2)16-CO2H); Aib20; C-terminal NH2
B6: Example 311 (peptide)
peptide: YXEGTXTSDYSILLDEKAQXAFIEYLIEGGPSSG
modifications: Aib2; αMeF(2F)6; K17((2-[2-(2-Amino-ethoxy)-ethoxy]-acetyl)2-(γ-Glu)-CO-(CH2)16-CO2H); Aib20; C-terminal NH2
B7: Example 312 (peptide)
peptide: YXEGTXTSDYSILLDKKAQXEFIEYLIEGGPSSG
modifications: Aib2; αMeF(2F)6; K17((2-[2-(2-Amino-ethoxy)-ethoxy]-acetyl)2-(γ-Glu)-CO-(CH2)16-CO2H); Aib20; C-terminal NH2
B8: Example 313 (peptide)
peptide: YXEGTXTSDYSILLDKKAQXAFIEYLIAGGPSSG
modifications: Aib2; αMeF(2F)6; K17((2-[2-(2-Amino-ethoxy)-ethoxy]-acetyl)2-(γ-Glu)-CO-(CH2)16-CO2H); Aib20; C-terminal NH2
B9: Example 314 (peptide)
peptide: YXEGTXTSDYSILLDKKAQXEFIEYLIAGGPSSG
modifications: Aib2; αMeF(2F)6; K17((2-[2-(2-Amino-ethoxy)-ethoxy]-acetyl)2-(γ-Glu)-CO-(CH2)16-CO2H); Aib20; C-terminal NH2
B10: Example 302 (peptide)
peptide: YXEGTXTSDYSILLDKKAQXAFIEYLIEGGPSSG
modifications: Aib2; αMeF(2F)6; K17((2-[2-(2-Amino-ethoxy)-ethoxy]-acetyl)2-(γ-Glu)-CO-(CH2)16-CO2H); Aib20; C-terminal NH2
B11: Example 316 (peptide)
peptide: Y[Aib]EGTFTSDYSILLDKK([AEEA-AEEA-γGlu-C18 diacid])AQ[Aib]AFIEYLIAGGPSSGAPPPS-NH2
modifications: N-terminus assumed
SMILES: CC[C@H](C)[C@H](NC(=O)[C@H](CC(C)C)NC(=O)[C@H](Cc1ccc(O)cc1)NC(=O)[C@H](CCC(=O)O)NC(=O)[C@@H](NC(=O)[C@H](Cc1ccccc1)NC(=O)[C@H](C)NC(=O)C(C)(C)NC(=O)[C@H](CCC(N)=O)NC(=O)[C@H](C)NC(=O)[C@H](CCCCNC(=O)COCCOCCNC(=O)COCCOCCNC(=O)CC[C@H](NC(=O)CCCCCCCCCCCCCCCCC(=O)O)C(=O)O)NC(=O)[C@H](CCCCN)NC(=O)[C@H](CC(=O)O)NC(=O)[C@H](CC(C)C)NC(=O)[C@H](CC(C)C)NC(=O)[C@@H](NC(=O)[C@H](CO)NC(=O)[C@H](Cc1ccc(O)cc1)NC(=O)[C@H](CC(=O)O)NC(=O)[C@H](CO)NC(=O)[C@@H](NC(=O)[C@H](Cc1ccccc1)NC(=O)[C@@H](NC(=O)CNC(=O)[C@H](CCC(=O)O)NC(=O)C(C)(C)NC(=O)[C@@H](N)Cc1ccc(O)cc1)[C@@H](C)O)[C@@H](C)O)[C@@H](C)CC)[C@@H](C)CC)C(=O)N[C@@H](C)C(=O)NCC(=O)NCC(=O)N1CCC[C@H]1C(=O)N[C@@H](CO)C(=O)N[C@@H](CO)C(=O)NCC(=O)N[C@@H](C)C(=O)N1CCC[C@H]1C(=O)N1CCC[C@H]1C(=O)N1CCC[C@H]1C(=O)N[C@@H](CO)C(N)=O
B12: Example 325 (peptide)
peptide: YXEGTXTSDYSILLDKKAQXAFIEYLIEGGPSSGAPPPS
modifications: Aib2; αMeF(2F)6; K17((2-[2-(2-Amino-ethoxy)-ethoxy]-acetyl)2-(γ-Glu)-CO-(CH2)18-CO2H); Aib20; C-terminal NH2
B13: Example 329 (peptide)
peptide: XXEGTXTSDYSILLDKKAQXAFIEYLIEGGPSSGAPPPS
modifications: D-Tyr1; Aib2; αMeF6; K17((2-[2-(2-Amino-ethoxy)-ethoxy]-acetyl)2-(γ-Glu)-CO-(CH2)18-CO2H); Aib20; C-terminal NH2
B14: Example 335 (peptide)
peptide: XXEGTXTSDYSIXLDKKAQXAFIEYLIEGGPSSGAPPPS
modifications: D-Tyr1; Aib2; αMeF6; αMeL13; K17((2-[2-(2-Amino-ethoxy)-ethoxy]-acetyl)2-(γ-Glu)-CO-(CH2)18-CO2H); Aib20; C-terminal NH2
B15: Example 336 (peptide)
peptide: XXEGTXTSDYSIXLDKKAQXAFIEYLIEGGPSSGAPPPS
modifications: D-Tyr1; Aib2; αMeF(2F)6; αMeL13; K17((2-[2-(2-Amino-ethoxy)-ethoxy]-acetyl)2-(γ-Glu)-CO-(CH2)18-CO2H); Aib20; C-terminal NH2
B16: Example 358 (peptide)
peptide: XXEGTFTSDYSIXLDXKAQXAFVEYLIAGGPSSGAPPPS
modifications: D-Tyr1; Aib2; αMeL13; Orn16; K17((2-[2-(2-Amino-ethoxy)-ethoxy]-acetyl)2-(γ-Glu)-CO-(CH2)18-CO2H); Aib20; C-terminal NH2

What was measured:
human glucagon receptor = target: T2, human glucagon receptor (human, UniProt P47871 26-477); assay: [125I]-Gcg competition SPA, hGcgR membranes
T2 construct: whole, on cells; also called hGcgR; GcgR

human GLP-1 receptor = target: T3, human GLP-1 receptor (human, UniProt P43220 24-463); assay: [125I]-GLP-1 competition SPA, hGLP-1R membranes
T3 construct: whole, on cells; also called hGLP-1R; hGLP1R
How it was run: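 Kᵢ values are geometric means (SEM) over replicates run on separate days, derived from IC₅₀ of four-parameter curve fits. Buffer: HEPES 25 mM pH 7.4 with CaCl₂ 2.5 mM, MgCl₂ 1 mM, bacitracin 0.1%, TWEEN-20 0.003%, EDTA-free protease inhibitors.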

human GIP receptor = target: T1, human GIP receptor; assay: [125I]-GIP competition SPA, hGIPR membranes

T2 sequence (P47871 26-477): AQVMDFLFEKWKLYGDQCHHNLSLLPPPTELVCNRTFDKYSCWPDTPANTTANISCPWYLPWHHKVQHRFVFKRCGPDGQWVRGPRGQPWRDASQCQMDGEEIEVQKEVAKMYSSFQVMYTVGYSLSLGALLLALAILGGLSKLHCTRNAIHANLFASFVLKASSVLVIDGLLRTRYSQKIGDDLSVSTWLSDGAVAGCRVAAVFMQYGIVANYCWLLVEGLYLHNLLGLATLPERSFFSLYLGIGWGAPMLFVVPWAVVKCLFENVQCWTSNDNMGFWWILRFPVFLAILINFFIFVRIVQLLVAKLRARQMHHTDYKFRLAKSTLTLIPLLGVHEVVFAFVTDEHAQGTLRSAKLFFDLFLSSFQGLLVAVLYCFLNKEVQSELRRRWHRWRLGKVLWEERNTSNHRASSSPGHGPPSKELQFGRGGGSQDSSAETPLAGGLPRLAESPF

Row | Binder | Ki (human glucagon receptor) [nM] | Ki (human GLP-1 receptor) [nM] | Ki (human GIP receptor) [nM]
1 | B1 | 44.4 | 0.875 | 0.0273
2 | B2 | 117 | 5.1 | 0.0773
3 | B3 | 94.2 | 1.01 | 0.0288
4 | B4 | 64.1 | 1.04 | 0.0264
5 | B5 | 174 | 1.7 | 0.0315
6 | B6 | 115 | 11.5 | 0.0497
7 | B7 | 106 | 1.63 | 0.0348
8 | B8 | 27.6 | 0.815 | 0.0261
9 | B9 | 116 | 0.717 | 0.027
10 | B10 | 18.5 | 0.617 | 0.0289
11 | B11 | 654 | 0.957 | 0.0418
12 | B12 | 13 | 0.475 | 0.0209
13 | B13 | 17 | 3.28 | 0.0439
14 | B14 | 27.1 | 2.54 | 0.0444
15 | B15 | 17.1 | 2.44 | 0.0277
16 | B16 | 915 | 1.37 | 0.0636
